Residue numbers refer to the chain shown, from its start. One block for each binder: values may come before it.
Columns and labels:
[1] = target: human Siglec-7 on primary human monocyte-derived dendritic cells (human, UniProt Q9Y286 19-467); experiment: cell-based or functional assay
[2] = target: T1, histidine-tagged human Siglec-7 (NovoProtein) (human, UniProt Q9Y286 19-353); experiment: BLI, antibody captured
T1 construct: Bought protein; also called recombinant human Siglec-7; recombinant Siglec-7; not shown: histidine tag
T1 sequence (Q9Y286 19-353 limits assumed): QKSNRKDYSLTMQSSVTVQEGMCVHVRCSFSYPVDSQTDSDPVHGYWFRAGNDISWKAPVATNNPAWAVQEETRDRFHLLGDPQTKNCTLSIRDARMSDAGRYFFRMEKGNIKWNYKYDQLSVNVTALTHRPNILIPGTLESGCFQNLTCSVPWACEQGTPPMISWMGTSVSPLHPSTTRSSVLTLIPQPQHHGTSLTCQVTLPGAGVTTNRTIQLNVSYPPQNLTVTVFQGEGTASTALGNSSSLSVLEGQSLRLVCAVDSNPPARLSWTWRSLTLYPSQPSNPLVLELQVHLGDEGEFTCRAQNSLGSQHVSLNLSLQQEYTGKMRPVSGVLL
Method: In this assay, the humanized antibodies were compared directly to S7AB. Briefly, the antibodies were captured on anti-human or anti-mouse IgG Fc Biosensors (Pall ForteBio). Varying concentrations (0-100 nM) of histidine-tagged human Siglec-7 (NovoProtein) were then bound to the captured anti-Siglec-7 surface (200 s association time, 900 s dissociation time). Multi-concentration kinetic analysis was performed using a 1:1 interaction model to extract association and dissociation rate constants (kₐ and kd, respectively) for each antibody. Apparent affinity constants (KD) were calculated from the ratio kd/kₐ.
The affinities of S7AB-H8 and variants S7AB-H8.1 through S7AB-H8.45 for human Siglec-7 were measured by BioLayer Interferometry according to the method described in Example 1 above.

Sequence of human Siglec-7 on primary human monocyte-derived dendritic cells (Q9Y286 19-467): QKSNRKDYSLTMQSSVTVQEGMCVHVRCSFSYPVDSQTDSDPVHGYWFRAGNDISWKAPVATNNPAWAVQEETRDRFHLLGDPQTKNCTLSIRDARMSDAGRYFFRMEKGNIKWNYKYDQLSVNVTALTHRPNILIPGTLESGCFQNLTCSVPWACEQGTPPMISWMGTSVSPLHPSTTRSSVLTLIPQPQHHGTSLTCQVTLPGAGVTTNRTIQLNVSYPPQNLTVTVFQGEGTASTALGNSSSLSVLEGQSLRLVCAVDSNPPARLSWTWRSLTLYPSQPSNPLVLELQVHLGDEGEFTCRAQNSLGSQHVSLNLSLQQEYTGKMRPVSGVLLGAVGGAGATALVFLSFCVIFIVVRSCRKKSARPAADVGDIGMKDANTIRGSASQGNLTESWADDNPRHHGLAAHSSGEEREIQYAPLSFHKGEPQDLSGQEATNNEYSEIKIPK

Fold increase in potency compared to AB-H8 [1]: 2 fold
Fold increase in potency compared to Chimeric Ab [1]: 5.9 fold
Maximal downregulation (% Siglec-7 remaining) [1]: 10.5%
Receptor downregulation, (EC50) (pM) [1]: 184 pM
B3: S7AB-H8.35.1 (antibody, V domains shown)
VH: QVQLVQSGAEVKKPGASVKVSCKASGYAFTEAWMNWVRQAPGQRLEWIGRIFPGYGHTNYAQKFQGRATLTEDTSTSTAYMELSSLRSEDTAVYYCARDYSDYYFDYWGQGTLVTVSS
VL: DIQMTQSPSSLSASVGDRVTITCRGSQDINTYLNWYQQKPGKAPKLLIYYTSRLHSGVPSRFSGSGSGTDYTLTISSLQPEDFATYYCQQGGTLPWTFGQGTKLEIK

Fold increase in potency compared to AB-H8 [1]: 3.7 fold
Fold increase in potency compared to Chimeric Ab [1]: 11.2 fold
Maximal downregulation (% Siglec-7 remaining) [1]: 7.8%
Receptor downregulation, (EC50) (pM) [1]: 97 pM
B5: S7AB-H8.45.1 (antibody, V domains shown)
VH: B3 VH
VL: B3 VL with G92N, T93I

Fold increase in potency compared to AB-H8 [1]: 4.9 fold
Fold increase in potency compared to Chimeric Ab [1]: 14.7 fold
Maximal downregulation (% Siglec-7 remaining) [1]: 4.1%
Receptor downregulation, (EC50) (pM) [1]: 73.9 pM
B7: S7AB-H8.44.1 (antibody, V domains shown)
VH: B3 VH with E31A, Y55L
VL: B3 VL with G92N, T93I

Fold increase in potency compared to AB-H8 [1]: 3.3 fold
Fold increase in potency compared to Chimeric Ab [1]: 9.9 fold
Maximal downregulation (% Siglec-7 remaining) [1]: 5.4%
Receptor downregulation, (EC50) (pM) [1]: 110 pM
B8: S7AB-H8.34.2 (antibody, V domains shown)
VH: B3 VH with E31A, P41R, Y55L
VL: B3 VL

Fold increase in potency compared to AB-H8 [1]: 4.1 fold
Fold increase in potency compared to Chimeric Ab [1]: 12.2 fold
Maximal downregulation (% Siglec-7 remaining) [1]: 4.9%
Receptor downregulation, (EC50) (pM) [1]: 88.9 pM
B9: S7AB-H8.29.2 (antibody, V domains shown)
VH: B3 VH with E31A, P41R, Y55L
VL: B3 VL with G25A, I29A, G92N, T93L

Fold increase in potency compared to AB-H8 [1]: 2.1 fold
Fold increase in potency compared to Chimeric Ab [1]: 6.4 fold
Maximal downregulation (% Siglec-7 remaining) [1]: 12.1%
Receptor downregulation, (EC50) (pM) [1]: 169 pM
B10: S7AB-H8.10.2 (antibody, V domains shown)
VH: B3 VH with P41R
VL: B3 VL with G92N, L94K

Fold increase in potency compared to AB-H8 [1]: 3.2 fold
Fold increase in potency compared to Chimeric Ab [1]: 9.4 fold
Maximal downregulation (% Siglec-7 remaining) [1]: 10.1%
Receptor downregulation, (EC50) (pM) [1]: 115 pM
B11: S7AB-H8.30.2 (antibody, V domains shown)
VH: B3 VH with P41R
VL: B3 VL with G25A, I29A, G92N, T93L

Fold increase in potency compared to AB-H8 [1]: 4.7 fold
Fold increase in potency compared to Chimeric Ab [1]: 14.1 fold
Maximal downregulation (% Siglec-7 remaining) [1]: 3.3%
Receptor downregulation, (EC50) (pM) [1]: 76.7 pM
B12: S7AB-H8.44.2 (antibody, V domains shown)
VH: B3 VH with E31A, P41R, Y55L
VL: B3 VL with G92N, T93I

Fold increase in potency compared to AB-H8 [1]: 1.8 fold
Fold increase in potency compared to Chimeric Ab [1]: 5.3 fold
Maximal downregulation (% Siglec-7 remaining) [1]: 10.8%
Receptor downregulation, (EC50) (pM) [1]: 205 pM
B14: S7AB-H8.35.2 (antibody, V domains shown)
VH: B3 VH with P41R
VL: B3 VL

Fold increase in potency compared to AB-H8 [1]: 2.7 fold
Fold increase in potency compared to Chimeric Ab [1]: 8.1 fold
Maximal downregulation (% Siglec-7 remaining) [1]: 11.3%
Receptor downregulation, (EC50) (pM) [1]: 134 pM
B15: S7AB-H8.30.1 (antibody, V domains shown)
VH: B3 VH
VL: B3 VL with G25A, I29A, G92N, T93L

Fold increase in potency compared to AB-H8 [1]: 3.6 fold
Fold increase in potency compared to Chimeric Ab [1]: 10.9 fold
Maximal downregulation (% Siglec-7 remaining) [1]: 4.4%
Receptor downregulation, (EC50) (pM) [1]: 99.5 pM
B16: S7AB-H8.34.1 (antibody, V domains shown)
VH: B3 VH with E31A, Y55L
VL: B3 VL

Fold increase in potency compared to AB-H8 [1]: 3.3 fold
Fold increase in potency compared to Chimeric Ab [1]: 9.9 fold
Maximal downregulation (% Siglec-7 remaining) [1]: 8.7%
Receptor downregulation, (EC50) (pM) [1]: 109 pM
B17: S7AB-H8.45.2 (antibody, V domains shown)
VH: B3 VH with P41R
VL: B3 VL with G92N, T93I

Fold increase in potency compared to AB-H8 [1]: 6.8 fold
Fold increase in potency compared to Chimeric Ab [1]: 20.4 fold
Maximal downregulation (% Siglec-7 remaining) [1]: 5.3%
Receptor downregulation, (EC50) (pM) [1]: 53.2 pM
B18: S7AB-H8.29.1 (antibody, V domains shown)
VH: B3 VH with E31A, Y55L
VL: B3 VL with G25A, I29A, G92N, T93L

Further lines, the binder ahead of its results:

B1: S7AB chimeric antibody (antibody, V domains shown)
VH: QVHLQQSGPELVKPGASVKISCKASGYAFTNCWMNWVRQRPGKGLDWIGRIFPGNGHTNYSGKFKDKATLTEDKSSSTAYMQLSSLTSEDSAVYFCARDYSDYYFDYWGQGTTLTVSS
VL: DVQMTQTTSSLSASLGDRVTISCRASQDINTYLNWYQQKPDGTVKLLIYYTSRLHSGVPSRFSGSGSGTDYSLTISNLEQEDIATYFCQQGNTLPWTFGGGTKLEIK
Maximal downregulation (% Siglec-7 remaining) [1]: 28.6%
Receptor downregulation, (EC50) (pM) [1]: 1024 pM

B2: S7AB-H8.1 (antibody, V domains shown)
VH: B3 VH with A32T, R44G, Y55L
VL: B3 VL with G92N, T93L
Kd [2]: 0.574 nM
fold improvement over S7AB-H8 [2]: 1.8 fold
koff [2]: 7.05e-05 s⁻¹
kon [2]: 123000 M⁻¹ s⁻¹
Fold increase in potency compared to AB-H8 [1]: 2.9 fold
Fold increase in potency compared to Chimeric Ab [1]: 8.7 fold
Maximal downregulation (% Siglec-7 remaining) [1]: 10.9%
Receptor downregulation, (EC50) (pM) [1]: 117 pM

B4: S7AB-H8.9.2 (antibody, V domains shown)
VH: B3 VH with E31A, P41R, Y55L
VL: B3 VL with G92N, L94K
Fold increase in potency compared to AB-H8 [1]: 3.1 fold
Fold increase in potency compared to Chimeric Ab [1]: 9.2 fold
Maximal downregulation (% Siglec-7 remaining) [1]: 4.5%
Receptor downregulation, (EC50) (pM) [1]: 118 pM

B6: S7AB-H8.9.1 (antibody, V domains shown)
VH: B3 VH with E31A, Y55L
VL: B3 VL with G92N, L94K
Fold increase in potency compared to AB-H8 [1]: 3.5 fold
Fold increase in potency compared to Chimeric Ab [1]: 10.5 fold
Maximal downregulation (% Siglec-7 remaining) [1]: 4.3%
Receptor downregulation, (EC50) (pM) [1]: 103 pM

B13: S7AB-H8.10.1 (antibody, V domains shown)
VH: B3 VH
VL: B3 VL with G92N, L94K
Fold increase in potency compared to AB-H8 [1]: 2.4 fold
Fold increase in potency compared to Chimeric Ab [1]: 7 fold
Maximal downregulation (% Siglec-7 remaining) [1]: 10.7%
Receptor downregulation, (EC50) (pM) [1]: 154 pM

B19: S7AB-H8.2 (antibody, V domains shown)
VH: B3 VH with E31M, R44G
VL: B3 VL with G92N, T93L
Kd [2]: 0.227 nM
fold improvement over S7AB-H8 [2]: 4.6 fold
koff [2]: 3.23e-05 s⁻¹
kon [2]: 142000 M⁻¹ s⁻¹
Fold increase in potency compared to AB-H8 [1]: 3.9 fold
Fold increase in potency compared to Chimeric Ab [1]: 11.8 fold
Maximal downregulation (% Siglec-7 remaining) [1]: 3.3%
Receptor downregulation, (EC50) (pM) [1]: 87 pM

B20: S7AB-H8.4 (antibody, V domains shown)
VH: B3 VH with E31A, R44G, Y55L
VL: B3 VL with G92N, T93L
Kd [2]: 0.214 nM
fold improvement over S7AB-H8 [2]: 4.9 fold
koff [2]: 3.15e-05 s⁻¹
kon [2]: 147000 M⁻¹ s⁻¹
Fold increase in potency compared to AB-H8 [1]: 4.3 fold
Fold increase in potency compared to Chimeric Ab [1]: 12.9 fold
Maximal downregulation (% Siglec-7 remaining) [1]: 4.5%
Receptor downregulation, (EC50) (pM) [1]: 79.5 pM

B21: S7AB-H8.6 (antibody, V domains shown)
VH: B3 VH with A32T, R44G, Y55L
VL: B3 VL with G92N, L94K
Kd [2]: 2.24 nM
fold improvement over S7AB-H8 [2]: 0.5 fold
koff [2]: 5.71e-05 s⁻¹
kon [2]: 25500 M⁻¹ s⁻¹
Fold increase in potency compared to AB-H8 [1]: 2.2 fold
Fold increase in potency compared to Chimeric Ab [1]: 6.6 fold
Maximal downregulation (% Siglec-7 remaining) [1]: 7.2%
Receptor downregulation, (EC50) (pM) [1]: 154 pM

B22: S7AB-H8.5 (antibody, V domains shown)
VH: B3 VH with R44G
VL: B3 VL with G92N, T93L
Kd [2]: 0.351 nM
fold improvement over S7AB-H8 [2]: 3 fold
koff [2]: 4.08e-05 s⁻¹
kon [2]: 116000 M⁻¹ s⁻¹
Fold increase in potency compared to AB-H8 [1]: 3.9 fold
Fold increase in potency compared to Chimeric Ab [1]: 11.8 fold
Maximal downregulation (% Siglec-7 remaining) [1]: 9.5%
Receptor downregulation, (EC50) (pM) [1]: 87 pM

B23: S7AB-H8.3 (antibody, V domains shown)
VH: B3 VH with E31G, A32Y, R44G, Y55L
VL: B3 VL with G92N, T93L
Kd [2]: 0.294 nM
fold improvement over S7AB-H8 [2]: 3.6 fold
koff [2]: 6.05e-05 s⁻¹
kon [2]: 206000 M⁻¹ s⁻¹
Fold increase in potency compared to AB-H8 [1]: 3.8 fold
Fold increase in potency compared to Chimeric Ab [1]: 11.5 fold
Maximal downregulation (% Siglec-7 remaining) [1]: 20.1%
Receptor downregulation, (EC50) (pM) [1]: 89.2 pM
